Measured values from patent US20170002084A1.

Assays:
Canine CD20 (canine) [1] = target: Canine CD20 (canine) (UniProt Q3C2E2); assay: FACS on CHO cells expressing recombinant canine CD20
Canine CD20 (canine) [2] = target: Canine CD20 (canine) (UniProt Q3C2E2); assay: cell-based or functional assay

Canine CD20 (canine), sequence (Q3C2E2 other isoform, or with tags, fused parts or gaps): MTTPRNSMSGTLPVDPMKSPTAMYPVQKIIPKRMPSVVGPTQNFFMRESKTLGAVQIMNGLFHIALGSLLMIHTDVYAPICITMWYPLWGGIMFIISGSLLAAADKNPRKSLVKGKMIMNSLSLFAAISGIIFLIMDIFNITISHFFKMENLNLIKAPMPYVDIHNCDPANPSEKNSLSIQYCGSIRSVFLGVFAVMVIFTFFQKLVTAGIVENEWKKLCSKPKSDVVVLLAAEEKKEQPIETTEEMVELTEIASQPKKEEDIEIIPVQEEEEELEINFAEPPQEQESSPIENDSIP

Kd (Canine CD20 (canine) [1]): 77.4 nM | Reduction (%) of cell proliferation of lymphoma cells (Canine CD20 (canine) [2]): 17.5%
B1: anti-canine CD20 antibody CD20-4 (antibody, part only; not given: light chain, V domains shown, part only)
VH: EVQLQQSVAELVRPGASVTLSCKASGYTFTDYEMHWVKQTPVHGLEWIGEIDPETGGTAYNQKFKGKAILTADKSSSTAYMELRSLTSEDSAVYYCTEYAMDYWGQGTSVTVSS
